Experiment in all cases: SPR, KD relative to WT C2;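 further: biacore SPR at 37 °C, anti-C2 mAbs captured via immobilised goat anti-human IgG, C2 alanine or serine surface mutants as analytes, 1:1 model fitted, double-referenced sensograms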
For assay [1], the target named is T1, human C2 T491A (human, UniProt P06681 21-752).
T1 sequence: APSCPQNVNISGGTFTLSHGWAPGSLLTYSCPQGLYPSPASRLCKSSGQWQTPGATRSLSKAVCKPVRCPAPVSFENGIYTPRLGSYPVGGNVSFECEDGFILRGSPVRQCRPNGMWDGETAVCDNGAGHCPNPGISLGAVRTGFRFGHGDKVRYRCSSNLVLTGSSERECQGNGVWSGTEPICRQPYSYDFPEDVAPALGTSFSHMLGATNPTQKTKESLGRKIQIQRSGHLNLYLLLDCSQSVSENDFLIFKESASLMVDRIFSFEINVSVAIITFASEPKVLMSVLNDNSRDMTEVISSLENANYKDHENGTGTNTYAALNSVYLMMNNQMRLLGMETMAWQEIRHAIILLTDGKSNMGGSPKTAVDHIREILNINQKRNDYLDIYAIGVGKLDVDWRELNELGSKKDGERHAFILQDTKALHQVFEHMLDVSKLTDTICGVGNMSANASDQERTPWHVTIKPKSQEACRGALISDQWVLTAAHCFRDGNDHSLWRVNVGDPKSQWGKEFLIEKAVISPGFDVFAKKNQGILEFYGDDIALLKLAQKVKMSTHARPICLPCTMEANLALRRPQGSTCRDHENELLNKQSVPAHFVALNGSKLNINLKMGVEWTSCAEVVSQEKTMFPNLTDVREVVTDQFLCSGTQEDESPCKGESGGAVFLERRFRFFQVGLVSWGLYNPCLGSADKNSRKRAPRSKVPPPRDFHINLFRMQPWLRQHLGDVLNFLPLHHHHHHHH

The target of assay [2] is T2, human C2 R688A (human, UniProt P06681 21-752).
T2 sequence: T1 sequence with A471T, R668A

The target of assay [3] is T3, human C2 D269A (human, UniProt P06681 21-752).
T3 sequence: T1 sequence with D249A, A471T

Assay [4] concerns the target T4, human C2 K531A (human, UniProt P06681 21-752).
T4 sequence: T1 sequence with A471T, K511A

Where a chain is given by its changes, count along the chain named.

B1: RF16-226 (antibody, human IgG4 S228P, lambda)
heavy: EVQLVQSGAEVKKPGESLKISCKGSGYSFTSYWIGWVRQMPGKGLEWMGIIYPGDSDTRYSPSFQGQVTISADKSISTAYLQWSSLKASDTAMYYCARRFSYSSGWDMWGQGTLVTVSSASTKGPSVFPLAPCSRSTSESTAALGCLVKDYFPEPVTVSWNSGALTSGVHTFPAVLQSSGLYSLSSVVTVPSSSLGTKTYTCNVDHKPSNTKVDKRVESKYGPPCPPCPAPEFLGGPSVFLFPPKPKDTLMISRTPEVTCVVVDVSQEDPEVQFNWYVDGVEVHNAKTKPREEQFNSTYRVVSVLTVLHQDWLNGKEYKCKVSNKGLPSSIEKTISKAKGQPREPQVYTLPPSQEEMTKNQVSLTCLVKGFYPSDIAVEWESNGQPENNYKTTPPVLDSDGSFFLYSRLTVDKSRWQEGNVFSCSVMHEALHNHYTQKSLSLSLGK
light: SYELTQPPSVSVSPGQTARITCSGDALTSKYVAWYQQKSGLAPLLVIYEDTRRPSGIPAKFSGSSSGSVATLTISGAHGDDEADYYCYSTDASGHQRVFGGGTKLTVLSQPKAAPSVTLFPPSSEELQANKATLVCLISDFYPGAVTVAWKADGSPVKAGVETTKPSKQSNNKYAASSYLSLTPEQWKSHRSYSCQVTHEGSTVEKTVAPTECS
notes: pH-dependent anti-C2 antibody from a phage display library; also called WT
Turning to B1, the Fold diff is 2 fold in assay [1], 3 fold in assay [2], 1 fold in assay [3] and 1 fold in assay [4].

The values above are taken from US20220332804A1 (CSL INNOVATION, published 2022).
